Consider two molecules from paper PMC3286832 (2011).

A word on the Kd: it is the concentration at which binding is half-saturated. A higher Kd goes with weaker binding.

The experiment deals with T1, Dnmt3a K44me0 peptide 39-50 (Mus musculus, UniProt O88508).
T1 chain: SATARKVGRPGR

B1: GLP SET (protein)
chain: not shown
As to B1, the Kd was about 5 µM.

B2: G9a SET (protein)
chain: not shown
B2 registered a Kd of about 5 µM.
